Reference: patent US20220185901A1 (Bayer, published 2022)

Tests used:
[1] = biological target: ALK-1/BMPR-2 receptor pair on PathHunter U2OS ALK-1/BMPR-2 dimerization cells (DiscoverX 93-0962C3) (UniProt P37023 22-503; Q13873 27-1038); assay: cell-based or functional assay
[2] = biological target: T1, hActivin RIA/ALK-2 Fc Chimera (TPP-17233) (human, UniProt Q04771 23-123); assay: ELISA: human ALK-2-Fc coated at 2 µg/ml, TPP-14719 titrated, detected with anti-human IgG2 (Fc specific) then anti-mouse IgG-HRP; readout Relative Fluorescence Units
T1 construct: also called human ALK-2-Fc
T1 sequence: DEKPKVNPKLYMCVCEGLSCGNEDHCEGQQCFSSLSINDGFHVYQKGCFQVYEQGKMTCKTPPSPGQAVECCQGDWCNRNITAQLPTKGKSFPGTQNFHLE
Method: (§1) Antigens human ALK-1-Fc and human ALK-2-Fc were coated at 2 μg/ml and binding of TPP-14696 and TPP-14719 was detected by anti-human IgG2 (Fc specific) antibody (Sigma 19513) followed by anti-mouse IgG (whole molecule)—HRP (Sigma A9044, 1:40000).
(§2) In order to determine the selectivity for the ALK-1/BMPR-2 receptor complex compared to the ALK-2/BMPR-2 receptor, the specificity of the agonistic antibodies has been evaluated by ELISA (FIG. 9). The antigens human ALK-1-Fc and human ALK-2-Fc were coated at 2 μg/ml and binding of TPP-14696 and TPP-14719 was detected by anti-human IgG2 (Fc specific) antibody (Sigma 19513) followed by anti-mouse IgG (whole molecule)—HRP (Sigma A9044, 1:40000).

[3] = biological target: T2, human ALK-1-Fc (TPP-11726) (human); assay: ELISA: human ALK-1-Fc coated at 2 µg/ml, TPP-14719 titrated, detected with anti-human IgG2 (Fc specific) then anti-mouse IgG-HRP; readout Relative Fluorescence Units
T2 construct: Used for panning, screening and SPR; also called hALK-1-Fc
Method: as §1, §2

Chain of ALK-1/BMPR-2 receptor pair on PathHunter U2OS ALK-1/BMPR-2 dimerization cells (DiscoverX 93-0962C3) (P37023 22-503, chain 1 of 2): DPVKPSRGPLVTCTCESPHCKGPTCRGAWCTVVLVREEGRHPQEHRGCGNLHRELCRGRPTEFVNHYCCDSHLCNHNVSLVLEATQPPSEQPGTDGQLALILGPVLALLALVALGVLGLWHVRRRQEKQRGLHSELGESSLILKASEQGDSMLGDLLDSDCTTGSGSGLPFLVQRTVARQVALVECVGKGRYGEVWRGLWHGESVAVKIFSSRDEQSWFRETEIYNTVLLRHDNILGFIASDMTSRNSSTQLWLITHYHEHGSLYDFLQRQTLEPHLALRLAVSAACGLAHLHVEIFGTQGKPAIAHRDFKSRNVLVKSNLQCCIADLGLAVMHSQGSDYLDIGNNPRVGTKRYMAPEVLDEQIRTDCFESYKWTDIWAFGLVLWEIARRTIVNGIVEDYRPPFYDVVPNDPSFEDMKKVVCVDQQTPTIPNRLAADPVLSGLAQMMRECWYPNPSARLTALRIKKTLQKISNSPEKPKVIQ
Chain of ALK-1/BMPR-2 receptor pair on PathHunter U2OS ALK-1/BMPR-2 dimerization cells (DiscoverX 93-0962C3) (Q13873 27-1038, chain 2 of 2): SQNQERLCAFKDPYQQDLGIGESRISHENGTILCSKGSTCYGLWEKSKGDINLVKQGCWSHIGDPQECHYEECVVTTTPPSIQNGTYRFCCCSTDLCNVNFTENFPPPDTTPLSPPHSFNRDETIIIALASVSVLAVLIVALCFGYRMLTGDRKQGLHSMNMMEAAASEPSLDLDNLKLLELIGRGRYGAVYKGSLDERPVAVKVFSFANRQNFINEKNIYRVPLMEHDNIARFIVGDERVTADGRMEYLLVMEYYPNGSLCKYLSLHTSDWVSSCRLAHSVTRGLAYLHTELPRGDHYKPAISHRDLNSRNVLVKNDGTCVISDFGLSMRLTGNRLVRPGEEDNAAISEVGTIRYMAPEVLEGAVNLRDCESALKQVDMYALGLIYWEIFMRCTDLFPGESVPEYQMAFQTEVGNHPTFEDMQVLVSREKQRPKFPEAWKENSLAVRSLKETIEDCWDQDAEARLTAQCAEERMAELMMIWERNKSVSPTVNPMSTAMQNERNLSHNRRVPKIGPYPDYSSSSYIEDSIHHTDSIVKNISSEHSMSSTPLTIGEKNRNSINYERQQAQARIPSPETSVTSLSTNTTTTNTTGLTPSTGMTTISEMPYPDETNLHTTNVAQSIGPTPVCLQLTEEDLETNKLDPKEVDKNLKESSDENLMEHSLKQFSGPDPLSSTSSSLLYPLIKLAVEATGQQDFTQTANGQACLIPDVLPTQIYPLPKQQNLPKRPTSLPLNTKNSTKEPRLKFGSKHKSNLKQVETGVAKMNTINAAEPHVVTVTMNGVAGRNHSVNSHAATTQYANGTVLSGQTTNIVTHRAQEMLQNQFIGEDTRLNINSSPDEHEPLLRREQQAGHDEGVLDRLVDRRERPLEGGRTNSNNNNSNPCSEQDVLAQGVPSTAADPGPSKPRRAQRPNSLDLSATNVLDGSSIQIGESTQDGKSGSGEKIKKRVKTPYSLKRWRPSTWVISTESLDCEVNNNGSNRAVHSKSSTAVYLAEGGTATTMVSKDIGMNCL
T2 sequence (chain, as listed by the source limits assumed): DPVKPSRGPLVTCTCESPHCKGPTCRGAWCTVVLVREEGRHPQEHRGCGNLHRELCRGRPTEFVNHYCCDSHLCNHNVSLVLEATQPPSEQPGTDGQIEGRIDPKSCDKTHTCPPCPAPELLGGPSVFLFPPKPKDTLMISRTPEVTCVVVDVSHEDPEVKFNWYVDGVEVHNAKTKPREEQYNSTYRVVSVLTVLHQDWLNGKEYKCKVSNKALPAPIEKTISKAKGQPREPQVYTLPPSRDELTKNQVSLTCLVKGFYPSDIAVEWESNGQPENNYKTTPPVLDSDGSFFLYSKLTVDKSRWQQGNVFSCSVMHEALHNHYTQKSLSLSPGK

Agonistic activity in PathHunter U2OS cells EC50 [1]: 6.9 nM
binding result [2]: no binding
EC50 [3]: 0.747 nM
B1: TPP-14719 (13660-13469-scFv-kih-IgG2_Fc) (bispecific antibody)
chain 1: EVQLLESGGGLVQPGGSLRLSCAASGFTFSSYAMSWVRQAPGKGLEWVANINQDGSEKNYVDSMRGRFTISRDNSKNTLYLQMNSLRAEDTAVYYCAREFDYWGQGTLVTVTSSGGGGSGGGGSGGGGSQSVLAQPPSASGTPGQRVTISCSGSSSNIGSNYVYWYQQLPGTAPKLLIYGNNKRPSGVPDRFSGSKSGTSASLAISGLRSEDEADYYCAAWDDSLNGRVFGGGTKLTVLGGGGSGGGGSGGGGSGVECPPCPAPPVAGPSVFLFPPKPKDTLMISRTPEVTCVVVDVSHEDPEVQFNWYVDGVEVHNAKTKPREEQFNSTFRVVSVLTVVHQDWLNGKEYKCKVSNKGLPAPIEKTISKTKGQPREPQVYTLPPCREEMTKNQVSLWCLVKGFYPSDIAVEWESNGQPENNYKTTPPMLDSDGSFFLYSKLTVDKSRWQQGNVFSCSVMHEALHNHYTQKSLSLSPG
chain 2: EVQLLESGGGLVQPGGSLRLSCAASGFTFSDYYMTWIRQAPGKGLEWVSSISGGSTYYADSRKGRFTISRDNSENTLYLQMNSLRAEDTAVYYCARDFGVAGWFGQYGMDVWGQGTLVTVSSGGGGSGGGGSGGGGSQSVLTQPPSASGTPGQRVTISCTGSSSNIGAGYDVHWYQQLPGTAPKLLIYRSNQRPSGVPDRFSGSKSGTSASLAISGLRSEDEADYYCSSYAGNYNLVFGGGTKLTVLGGGGSGGGGSGGGGSGVECPPCPAPPVAGPSVFLFPPKPKDTLMISRTPEVTCVVVDVSHEDPEVQFNWYVDGVEVHNAKTKPREEQFNSTFRVVSVLTVVHQDWLNGKEYKCKVSNKGLPAPIEKTISKTKGQPREPQVCTLPPSREEMTKNQVSLSCAVKGFYPSDIAVEWESNGQPENNYKTTPPMLDSDGSFFLVSKLTVDKSRWQQGNVFSCSVMHEALHNHYTQKSLSLSPG
notes: scFv-Fc (kih) heterodimer with IgG2 Fc; also called BsAB TPP-14719
